Entries after “also recorded” stand apart in the source; their conditions may differ. Values belong to the molecule of their own block, whether it stands above or below them.
How the values were obtained:
[1] = system: N-terminal CBM33 domain of CelS2; assay: Metal reactivation of EDTA treated N-terminal CBM33 domain of CelS2 (HPAEC, FIG. 31); format: biochemical, Streptomyces coelicolor A3(2); details: for reactivation of EDTA treated enzyme: 10 μM metal ion, 20 μM EDTA, 1.7 mM reduced glutathione, pH 6.6
Protocol: […]; Mg^2+, Fe^3+, Zn^2+, Co^2+, Ca^2+, Cu^2+). […].
To identify which is the preferred metal for CelS2, the activity of the N-terminal CBM33 domain of CelS2 was inhibited by EDTA and different metals were tested to reactivate the protein.

[2] = Cellulase boosting properties of CelS2 at various pHs with monocomponent Cel7A; format: biochemical; details: Cel7A
Description: When probing the cellulose boosting properties of CelS2 at various pHs using monocomponent Cel7A as the cellulose hydrolytic component, pH 5.5 came out as the optimal pH for activity. […] The most obvious reason for the decrease in cellulose hydrolysis at increasing pH is the pH stability and efficiency of Cel7A. […] CelS2 is a bacterial enzyme that originates from Streptomyces species that are known to grow optimally on cellulosic substrates in approximately neutral pH conditions (Kontro et al., 2005, Letters in Applied Microbiology 41: 32-38.).

[3] = CBP21 reaction speed and degree of substrate oxidation (UHPLC of oxidized chitooligosaccharides); format: biochemical
Protocol: FIGS. 16A and 16B show the speed and extent of oxidative cleavage by CBP21 activity. […] After five hours, approximately 4.9% of the total sugars (theoretical number based on chitin concentration) are oxidized*. […] The degree of oxidation was determined by rapid conversion of the treated chitin with a large dose of a chitinase cocktail followed by UHPLC detection of oxidized dimers (filled diamonds) and trimers (filled triangles), as described in the Materials and Methods section. The linear part of the reaction represents an oxidation rate of approximately 1 per minute**. Maximum levels are reached after 2-3 hours and represent a degree of oxidation of 7.6% of the total sugars (theoretical number based on chitin concentration)***. Data in both panels are mean+/−SD (N=3); error bars (not visible for every point) indicate SD.
*The end concentrations of oxidized trimer and tetramer are 53 and 55 μM, respectively, giving rise to a total of 108 μM GlcNAcA. The molar concentration of GlcNAc in the solution is 2217 μM. Thus the degree of oxidation is 108/2217; in other words 4.9% of the sugars are GlcNAcA. **The rates calculated for oxidized dimer and oxidized trimer are 0.68 and 0.60 μM/min. […] The molar concentration of GlcNAc in the solution is 2217 μM. Thus the degree of oxidation is 168/2217; in other words 7.6% of the sugars are GlcNAcA.
Fractions were dried under vaccum (SpeedyVac), and resuspended in 50 μL MilliQ water. Purity was verified by MALDI-TOF MS. Isolated GlcNAc3GlcNAcA or GlcNAc4GlcNAcA were each incubated for 2 hours at 37° C. with 7.0 μM of a pure recombinant family 19 chitinase (ChiG from Streptomyces coelicolor (Hoell et al., 2006, FEBS J. 273: 4889)) resulting in production of equimolar amounts of GlcNAc2 and GlcNAcGlcNAcA or GlcNAc2GlcNAcA, respectively. The amount of GlcNAc2 resulting from the hydrolysis was estimated using a predetermined standard curve. Response factors for the GlcNAcA containing oligosaccharides were obtained by determining GlcNAcGlcNAcA/GlcNAc2 and GlcNAc2GlcNAcA/GlcNAc2 peak area ratios and found to be 0.71 and 0.81, respectively. A response factor for GlcNAc3GlcNAcA was approximated to be 0.88 by extrapolation of the two experimentally determined response factors. Using the response factors determined, GlcNAcGlcNAcA and GlcNAc2GlcNAcA peaks could be quantified using GlcNAc2 for calibration. […] Additionally, the reactions contained 0.45 mg/mL beta-chitin, 1.0 μM CBP21 and 0.5 ChiC μM in 20 mM Tris-HCl pH 8.0.
The reactions were incubated at 37° C. in an Eppendorf Thermo mixer with shaking at 1000 rpm, and sampled at 30, 60, 120 and 300 minutes. All samples were mixed 1:1 with 100% acetonitrile in order to stop the reaction and soluble products were analyzed by UHPLC. Separation of the oxidized oligosaccharides and GlcNAc2 was achieved using a column temperature of 30° C. and a flow of 0.4 mL/min, with a gradient starting at 80% ACN (A):20% 15 mM Tris-HCl pH 8.0 (B) for 4.5 minutes, followed by an 11 minute gradient to 63% A: 37% B which was held for 3.5 minutes. Column reconditioning was achieved by a two minute gradient to initial conditions and subsequent running at initial conditions for 5 minutes. Eluted oligosaccharides were monitored by recording absorption at 205 nm. Chromatograms were recorded, integrated and analysed using the ChemStation rev. B.04.02 chromatography software (Agilent Technologies).
In order to approximate the rate of the CBP21 oxidohydrolytic activity, reactions containing 0.45 mg/mL beta-chitin, 1.0 μM CBP21 and 1.0 mM reduced glutathione in 20 mM Tris-HCl pH 8.0 were incubated at 37° C. and sampled at 10, 15, 30,45, 60 and 300 minutes. […]

[4] = Chitin solubilization by CBP21: soluble oxidized products (MALDI-TOF MS, UHPLC); format: biochemical; details: 2.0 mg/mL beta-chitin, 1.0 mM ascorbic acid, 20 mM Tris pH 8.0, 37° C.
Protocol: Two microliter of a 9 mg/mL mixture of 2,5-dihydroxybenzoic acid (DHB) in 30% acetonitrile was applied to a MTP 384 target plate ground steel TF (Bruker Daltonics). One microliter sample was then mixed into the DHB droplet and dried under a stream of air. The samples were analyzed with an Ultraflex MALDI-TOF/TOF instrument (Bruker Daltonics GmbH, Bremen, Germany) with a Nitrogen 337 nm laser beam. The instrument was operated in positive acquisition mode and controlled by the FlexControl 3.3 software package. All spectra were obtained using the reflectron mode with an acceleration voltage of 25 kV, a reflector voltage of 26, and pulsed ion extraction of 40 ns in the positive ion mode. The acquisition range used was from m/z 0 to 7000. […] Post-source decay (PSD) spectra using the Bruker Daltonics LIFT system were recorded at 8 kV precursor ion acceleration voltage and fragment acceleration (LIFT voltage 19 kV). […]
UHPLC was run on an Agilent 1290 Infinity UHPLC system equipped with diode array detector, set up with a Waters Acquity UPLC BEH amide column (2.1×150 mm with a 2.1×30 mm pre column both having a column material particle size of 1.7 μm) using 5 μL sample injections. […] Eluted oligosaccharides were monitored by recording absorption at 205 nm. Chromatograms were recorded, integrated and analysed using the ChemStation rev. […]

[5] = Time course of filter paper cellulose degradation by […] with CelS2 (FIG. 25); format: biochemical; details: 10 mg/ml filter paper, 0.8 μg/ml CC, pH 5.5
Protocol: In reactions where no CelS2 was present, 40 μg/ml purified BSA was added in order to maintain an identical protein load. […] Data are mean+/−SD (N=3); error bars indicate SD.

[6] = 0.1 mg/mL beta-chitin, 0.5 μM ChiC, 1.0 mM ascorbic acid, pH 8.0
Protocol: CBP21-like and GH61 proteins contain two highly conserved histidines (H28 and H114 in CBP21), one of which is the N-terminal histidine of the secreted mature protein.
Isocratic HPLC was run on a Dionex Ultimate 3000 HPLC system set up with a 4.6×250 mm Amide-80 column (Tosoh Bioscience, Montgomeryville, Pa., USA) with an Amide-80 guard column. The mobile phase consisted of 70% acetonitrile: 30% MilliQ H2O and the flow rate was 0.7 ml/min. Eluted oligosaccharides were monitored by recording absorption at 190 nm. Chromatograms were recorded, integrated and analysed using the Chromeleon 6.8 chromatography software (Dionex). […] A standard solution containing 0.10 mM (GlcNAc)2 was analyzed at regular intervals during the sample series, and the resulting average values (displaying standard deviations of less than 3%) were used for calibration.
For the sake of experimental simplicity and throughput, the degradation of chitin in reactions with ChiC and CBP21 was quantitatively assessed by measuring concentration of the dominant product, (GlcNAc)2, only.
The reaction was incubated at 37° C. and sampled at regular time intervals. Chitin degradation was measured by determining the concentration of (GlcNAc)2 by HPLC.

[7] = Filter paper degradation by […] with CelS2 or E7 (FIG. 20), sugars by HPLC; format: biochemical
Protocol: Reactions were run in 50 mM Bis-tris/HCl pH 6.5, 1 mM MgCl2, at 50° C. and 900 rpm (horizontal agitation). Control reactions containing the cellulosic substrate suspended in the same buffer as used for the enzyme assays gave no detectable signal for either glucose or cellobiose.
The mobile phase consisted of 5 mM sulfuric acid and the flow rate used was 1.0 ml/min. Eluted glucose and cellobiose were monitored by recording refractive index. Quantification was obtained by running glucose and cellobiose standards.
Assays performed to evaluate the function of E7 and CelS2 were set up using a variety of cellulosic substrates (AVICEL®, filter paper and steam exploded wood chips from poplar), at either pH 5.5 (20 mM sodium acetate buffer), 6.5 (20 mM Bis-Tris buffer) or 8.0 (20 mM Tris buffer) in reaction mixtures containing 1.0 mM MgCl2.

[8] = Soluble products released from AVICEL by CBM33 proteins (MALDI-TOF MS, HPAEC); format: biochemical; details: with external electron donor (ascorbic acid or reduced glutathione)
Protocol: The main peaks are annotated with molecular weight and degree of polymerization (DP).
The DP of the oxidized cellooligosaccharides is indicated by n, where n=3 (the shortest labelled oxidized cellooligosaccharide has a DP of three (=n)). […] Peak annotation was performed by comparing the chromatogram with the chromatogram obtained for a chemically prepared mixture of oxidized cellooligosaccharides with lengths varying from DP1 to DP10.
The main peaks are annotated with molecular weight and degree of polymerization (DP). All annotated peaks are Na adducts of native cellooligosaccharides, oxidized cellooligosaccharides (denoted “ox”) or the sodium salts of oxidized cellooligosaccharides.
Products were analyzed after 20 hours of incubation in 20 mM ammonium acetate buffer pH 5.0, 1 mM MgCl2 at 50° C. and 900 rpm (vertical agitation).
Separation of native and oxidized cellooligosaccharides was achieved using a Dionex Bio-LC equipped with a CarboPack PA1, a column temperature of 30° C. and a flow of 0.25 ml/min, with starting conditions, i.e., 0.1 M NaOH. A stepwise linear gradient with increasing amounts of sodium acetate was applied, going from 0.1 M NaOH and 0.1 M sodium acetate in 10 minutes, then to 0.1 M NaOH and 0.3 M sodium acetate for 25 minutes then increasing to 0.1 M NaOH and 1.0 M sodium acetate at 30 minutes which was kept for 10 minutes. Column reconditioning was achieved by a one minute gradient to initial conditions and subsequent running at initial conditions for 14 minutes. Eluted oligosaccharides were monitored by PAD detection. Chromatograms were recorded and analysed using Chromeleon 7.0 Peak identification was achieved by a procedure including the following steps: oxidized cellooligosaccharides were separated using a Dionex Ultimate 3000 UHPLC system carrying a Hypercarb 150×2.1 mm column (Thermo Scientific) running a gradient of water/0.1% TFA and acetonitrile/0.1% TFA (from 20 to 80% acetonitrile) according to the method developed by Westphal et al., 2010, Journal of Chromatography A 1217: 689-695. Eluted peaks were manually fractioned, freeze-dried, re-dissolved in MilliQ water and identified using MALDI-TOF MS. Pure oxidized cellooligosaccharides with known identity were then analyzed using the HPEAC method described above in order to establish the identity of the oxidized cellooligosaccharides generated by CelS2 and E7.

[9] = Filter paper cellulose degradation by […] with E7 (FIG. 28); format: biochemical
Protocol: 1 μM of the N-terminal CBM33 domain of CelS2 was incubated with 10 mg/ml AVICEL® in the presence of 0.8 mM of one of the reductants, or in the absence of any reductant. Reactions were run in 50 mM succinate buffer pH 5.5, 1 mM MgCl2, at 50° C. and 900 rpm (vertical agitation) for 20 hours. […] (glucose and cellobiose reported as [Glc]) released after incubation of 0.08 μl/ml […]™ (CC) in the presence or absence of 1 μM E7 and 2 mM reduced glutathione (RG) as external electron donor with 2 mg/ml filter paper cellulose. Reactions were incubated in 20 mM sodium acetate buffer pH 5.5, 1 mM MgCl2, at 50° C. and 900 rpm (horizontal agitation) for up to 50 hours.

[10] = 1.0 μM CBP21 alone, 0.45 mg/mL beta-chitin

reactivation of EDTA treated enzyme [1]: reactivated the enzyme
reactivation of EDTA treated enzyme ([1]; listed as copper): able to reactivate CelS2
Molecule: [Cu+2] [Cu^2+]
effect on CBM33 action at higher metal concentration ([1]; concentrations in the 1 mM range, not shown): inhibits CBM33 action

cellulase activity at pH 8.0 [2]: close to inactive
B1: Cel7A: family GH7 cellulase from Hypocrea jecorina purified from CELLUCLAST (protein, UniProt P62694 18-513, looked up)
Exoglucanase 1: QSACTLQSETHPPLTWQKCSSGGTCTQQTGSVVIDANWRWTHATNSSTNCYDGNTWSSTLCPDNETCAKNCCLDGAAYASTYGVTTSGNSLSIGFVTQSAQKNVGARLYLMASDTTYQEFTLLGNEFSFDVDVSQLPCGLNGALYFVSMDADGGVSKYPTNTAGAKYGTGYCDSQCPRDLKFINGQANVEGWEPSSNNANTGIGGHGSCCSEMDIWEANSISEALTPHPCTTVGQEICEGDGCGGTYSDNRYGGTCDPDGCDWNPYRLGNTSFYGPGSSFTLDTTKKLTVVTQFETSGAINRYYVQNGVTFQQPNAELGSYSGNELNDDYCTAEEAEFGGSSFSDKGGLTQFKKATSGGMVLVMSLWDDYYANMLWLDSTYPTNETSSTPGAVRGSCSTSSGVPAQVESQSPNAKVTFSNIKFGPIGSTGNPSGGNPPGGNRGTTTTRRPATTTGSSPGPTQSHYGQCGGIGYSGPTVCASGTTCQVLNPYYSQCL

potentiating effect on chitinase (ChiC) efficiency [6]: unable to boost chitinase activity
B4: CBP21^H114A: H114A mutant variant of CBP21 (protein, UniProt P9WEM3 28-197, looked up, variant H114A)
AA10 family lytic …: HGYVESPASRAYQCKLQLNTQCGSVQYEPQSVEGLKGFPQAGPADGHIASADKSTFFELDQQTPTRWNKLNLKTGPNSFTWKLTARASTTSWRYFITKPNWDASQPLTRASFDLTPFCQFNDGGAIPAAQVTHQCNIPADRSGSHVILAVWDIADTANAFYQAIDVNLSK
production of soluble oxidized oligosaccharides from beta-chitin [4]: did not lead to production of soluble oxidized oligosaccharides

Further lines, the molecule ahead of its results:

B2: CBP21: chitin-binding protein of Serratia marcescens, single-domain CBM33 protein (SEQ ID NO: 4) (protein, listed as Serratia marescens)
chain: MNKTSRTLLSLGLLSAAMFGVSQQANAHGYVESPASRAYQCKLQLNTQCGSVQYEPQSVEGLKGFPQAGPADGHIASADKSTFFELDQQTPTRWNKLNLKTGPNSFTWKLTARHSTTSWRYFITKPNWDASQPLTRASFDLTPFCQFNDGGAIPAAQVTHQCNIPADRSGSHVILAVWDIADTANAFYQAIDVNLSK
rate calculated for oxidized dimer [3, 10]: 0.68 µM/min
rate calculated for oxidized trimer [3, 10]: 0.60 µM/min
rate of oxidized products generated (dimer + trimer) [3, 10]: 1.28 µM/min
end concentration of oxidized tetramer ([3]; CBP21 + ChiC, five hours): 55 µM
end concentration of oxidized trimer ([3]; CBP21 + ChiC, five hours): 53 µM
total GlcNAcA ([3]; CBP21 + ChiC, five hours): 108 µM
oxidized dimer produced at maximum levels ([3]; CBP21 alone): 93 µM
oxidized trimer produced at maximum levels ([3]; CBP21 alone): 75 µM
time at which maximum levels of oxidized sugars are reached ([3]; CBP21 alone): 2 to 3 h
total GlcNAcA at maximum levels ([3]; CBP21 alone): 168 µM
production of soluble oxidized oligosaccharides from beta-chitin [4]: soluble products are dominated by even numbered short oligosaccharides with acidic reducing ends
effect on CELLUCLAST (CC) production of soluble glucose over time [5]: did not affect CC efficiency
potentiating effect on chitinase (ChiC) efficiency [6]: promotes chitin degradation by ChiC considerably better in the presence of ascorbic acid

B3: E7: single domain CBM33 from Thermobifida fusca (SEQ ID NO: 6) (protein, listed as Thermobifida fusca)
chain: MHRYSRTGKHRWTVRALAVLFTALLGLTQWTAPASAHGSVINPATRNYGCWLRWGHDHLNPNMQYEDPMCWQAWQDNPNAMWNWNGLYRDWVGGNHRAALPDGQLCSGGLTEGGRYRSMDAVGPWKTTDVNNTFTIHLYDQASHGADYFLVYVTKQGFDPTTQPLTWDSLELVHQTGSYPPAQNIQFTVHAPNRSGRHVVFTIWKASHMDQTYYLCSDVNFV
increase of glucose yield versus CELLUCLAST only ([7]; no external electron donor, 24 hours): ~3.0 fold
increase of glucose yield versus CELLUCLAST only ([7]; no external electron donor, 120 hours): ~3.5 fold
increase of glucose yield versus CELLUCLAST only ([7]; with external electron donor (1 mM reduced glutathione), 24 hours): 3.5 fold
increase of glucose yield versus CELLUCLAST only ([7]; with external electron donor (1 mM reduced glutathione), 120 hours): ~4.5 fold
release of soluble native/oxidized cellooligosaccharides from AVICEL [8]: soluble oligomeric products were observed
effect on CELLUCLAST activity ([9]; 1 μM E7, 0.08 μl/ml CC, 2 mg/ml filter paper, pH 5.5): acts in synergy with CELLUCLAST™; also recorded: prolongs cellulase activity over time
Glc or Glc2 released without cellulases ([9]; E7 in absence of cellulases): did not yield detectable amounts of Glc or Glc2

B5: CBM33 domain: recombinantly produced N-terminal CBM33 domain of CelS2 (SEQ ID NO: 22) (protein)
chain: HGVAMMPGSRTYLCQLDAKTGTGALDPTNPACQAALDQSGATALYNWFAVLDSNAGGRGAGYVPDGTLCSAGDRSPYDFSAYNAARSDWPRTHLTSGATIPVEYSNWAAHPGDFRVYLTKPGWSPTSELGWDDLELIQTVTNPPQQGSPGTDGGHYYWDLALPSGRSGDALIFMQWVRSDSQENFFSCSDVVFDGG
modifications: Streptomyces coelicolor
release of soluble native/oxidized cellooligosaccharides from AVICEL [8]: shows activity on AVICEL® without its CBM2, although lower than the activity of the whole protein
